Laboratory results reported in US20070134249A1 (GENITOPE, published 2007).

Experiments:
559 = biological target: T1, 559; test: ELISA; set-up: key to grade: 0 = <0.5 OD, 1 = 0.5-1.0 OD, 4 = 1-4 OD
T1 construct: H3-15 L2-23; also called PIN559
From the text: (§1) Before specificity screening, all of the clonal immunogen-positive hybridoma supernatants were re-screened on the immunogen, a non-family member Id protein, and KLH, if animals were immunized with Id protein that has been conjugated KLH. As described above, this screen identifies HC-specific clones but not mAbs against the light chain constant region. Clones identified positive to the immunogen and KLH were […]. Those found positive to the immunogen but not to the non-family member Id protein or KLH were tittered on the immunogen. In addition to normalizing for different binding affinities and concentrations, each hybridoma supernatant was titered on the fully human form of the Id protein used as the immunogen(s) for the V regions. The titer or dilution resulting in an ELISA absorbance of 2.5 to 3 OD after 30 min. incubation time was then used. Hybridoma specificity was determined by screening against available Id proteins expressing the same HV and KV or LV as well as different HV, KV and LV. The final ELISA results are expressed as follows: 0 (<0.5 OD), 1 (0.5-1.0 OD), or 4 (1-4 OD). Positive hybridoma supernatants are categorized according to specificity: anti-Id, anti-constant region (HC, KC or LC), or V region (HV, KV, LV family or family member).
(§2) In general, the fully human Id protein or proteins containing the immunogen V regions were coated onto 96-well ELISA plates at 2.5-5 ug/mL in carbonate buffer pH 9.6 and incubated at 4° C. for up to 14 days. On the day of the ELISA, plates were brought to RT and blocked with Tris-Tween-20, pH 7.6 for 15-60 min. at RT. Following a NaCl and Triton X-100 wash, diluted hybridoma cell culture supernatants were incubated overnight at 4° C. Hybridoma supernatant dilutions ranged from 1:2 to 1:25 and were prepared in PBS with 5% BSA. Plates were washed and incubated with HRP-conjugated goat anti-mouse IgG-specific detecting antibody. A chromogenic substrate (TMB) was used to measure the amount of mouse antibody bound to each well. The reaction was stopped at or before 30 minutes with IN H2SO4 and plates were read immediately. Absorbency readings at 450 nm ranging between 0-4 OD and using Molecular Devices plate reader and SOFTMAX PRO software.

710 = biological target: T2, 710; test: ELISA; set-up: key to grade: 0 = <0.5 OD, 1 = 0.5-1.0 OD, 4 = 1-4 OD
T2 construct: H1-8 L2-8; also called PIN710
From the text: as §1, §2

746 = biological target: T3, 746; test: ELISA; set-up: key to grade: 0 = <0.5 OD, 1 = 0.5-1.0 OD, 4 = 1-4 OD
T3 construct: H4-39 L2-8; also called PIN746
From the text: as §1, §2

787 = biological target: T4, 787; test: ELISA; set-up: key to grade: 0 = <0.5 OD, 1 = 0.5-1.0 OD, 4 = 1-4 OD
T4 construct: also called PIN787
From the text: as §1, §2

662 = biological target: T5, 662; test: ELISA; set-up: key to grade: 0 = <0.5 OD, 1 = 0.5-1.0 OD, 4 = 1-4 OD
T5 construct: fully human Id protein; also called PIN662
T5 sequence (heavy, as listed by the source): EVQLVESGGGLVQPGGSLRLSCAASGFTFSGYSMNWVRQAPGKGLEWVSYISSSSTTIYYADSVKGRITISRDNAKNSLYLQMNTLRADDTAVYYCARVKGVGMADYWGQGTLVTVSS
From the text: as §1, §2

[1] = biological target: T6, PIN574 fully human Id protein (HV4-39 / LV1-40) (human); test: ELISA; set-up: key to grade: 0 = <0.5 OD, 1 = 0.5-1.0 OD, 4 = 1-4 OD
T6 construct: Recombinant patient-derived idiotype immunoglobulin used as antigen, fully human form; also called Immunogen (for 20H5); not shown: human immunoglobulin heavy chain constant region, isotype G3 (HCG3); human immunoglobulin lambda light chain constant region (LC)
T6 sequence (VH, as listed by the source, chain 1 of 2): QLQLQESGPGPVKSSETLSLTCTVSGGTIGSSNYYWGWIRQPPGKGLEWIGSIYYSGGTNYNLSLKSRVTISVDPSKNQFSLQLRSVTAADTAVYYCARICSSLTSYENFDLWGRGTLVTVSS
T6 sequence (VL, as listed by the source, chain 2 of 2): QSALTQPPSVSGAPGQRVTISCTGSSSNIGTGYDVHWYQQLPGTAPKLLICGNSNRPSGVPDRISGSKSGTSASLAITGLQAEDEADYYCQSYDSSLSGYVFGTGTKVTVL
From the text: as §1, §2

552 = biological target: T7, 552; test: ELISA; set-up: key to grade: 0 = <0.5 OD, 1 = 0.5-1.0 OD, 4 = 1-4 OD
T7 construct: H1-18 L2-8; also called PIN552
From the text: as §1, §2

625 = biological target: T8, 625; test: ELISA; set-up: key to grade: 0 = <0.5 OD, 1 = 0.5-1.0 OD, 4 = 1-4 OD
T8 construct: H4-61 L2-8; also called PIN625
From the text: as §1, §2

604 = biological target: T9, 604; test: ELISA; set-up: key to grade: 0 = <0.5 OD, 1 = 0.5-1.0 OD, 4 = 1-4 OD
T9 construct: H4-34 L2-8; also called PIN604
From the text: as §1, §2

116 = biological target: T10, 116; test: ELISA; set-up: key to grade: 0 = <0.5 OD, 1 = 0.5-1.0 OD, 4 = 1-4 OD
T10 construct: fully human Id protein; also called PIN116
T10 sequence (VH, as listed by the source, chain 1 of 2): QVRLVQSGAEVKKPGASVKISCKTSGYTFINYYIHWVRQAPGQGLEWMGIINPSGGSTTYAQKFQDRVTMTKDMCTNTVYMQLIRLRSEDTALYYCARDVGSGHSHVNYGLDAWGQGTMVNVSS
T10 sequence (V domain, as listed by the source, chain 2 of 2): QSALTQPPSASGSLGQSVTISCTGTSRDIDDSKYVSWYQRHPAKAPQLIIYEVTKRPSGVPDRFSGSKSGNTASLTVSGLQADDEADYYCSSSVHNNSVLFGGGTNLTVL
From the text: as §1, §2

647 = biological target: T11, 647; test: ELISA; set-up: key to grade: 0 = <0.5 OD, 1 = 0.5-1.0 OD, 4 = 1-4 OD
T11 construct: fully human Id protein; also called PIN647
T11 sequence (VH, as listed by the source, chain 1 of 2): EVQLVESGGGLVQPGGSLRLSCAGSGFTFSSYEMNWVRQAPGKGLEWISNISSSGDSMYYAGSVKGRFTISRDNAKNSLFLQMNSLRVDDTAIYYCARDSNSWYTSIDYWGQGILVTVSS
T11 sequence (VL, as listed by the source, chain 2 of 2): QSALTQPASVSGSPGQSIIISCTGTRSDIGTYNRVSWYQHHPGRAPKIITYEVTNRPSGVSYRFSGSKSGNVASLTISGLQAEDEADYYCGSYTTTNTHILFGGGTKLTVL
From the text: as §1, §2

[2] = biological target: T6, PIN574 fully human Id protein (HV4-39 / …); test: SPR (BIACORE 2000); mAb captured on anti-mouse surface, fully human Id protein as analyte, 25 C
Procedure: (§3) Binding constants were also determined for three of the sequenced clones (3C9, 10H7, and 20H5), as well as for two additional clones (6C9 and 15E1). The association and disassociation rates were measured by surface plasmon resonance using a BIACORE 2000 machine.
(§4) In addition, based on ELISA results, PIN185 was used as a positive control Id protein for 10H7 and 15E1 and a negative control Id protein for 3C9 and 6C9 and PIN149 was used as a non-binding Id protein for 20H5. Each mAb was captured onto an anti-mouse surface and tested for binding to the fully human Id protein. Following the mAb capture phase of the assay for the (@2 ug/ml), the fully human Id proteins were all diluted to a starting concentration of 250 nM and tested in a three fold dilution series. Each concentration was tested in duplicate. The running buffer contained PBS plus 0.005% tween-20 and 0.1 mg/ml BSA as a carrier. Binding data were collected at 25° C. […] The other data sets all fit well to a single site interaction model.

[3] = biological target: T12, PIN149 fully human Id protein (HV3-23 / KV4-1) (human); test: SPR (BIACORE 2000); mAb captured on anti-mouse surface, fully human Id protein as analyte
T12 construct: Recombinant patient-derived idiotype immunoglobulin used as antigen; also called PIN149 Id protein; Immunogen (for 3C9, 6C9, 10H7, 15E1); not shown: human immunoglobulin heavy chain constant region, isotype G3 (HCG3); human immunoglobulin kappa light chain constant region (KC)
T12 sequence (VH, as listed by the source, chain 1 of 2): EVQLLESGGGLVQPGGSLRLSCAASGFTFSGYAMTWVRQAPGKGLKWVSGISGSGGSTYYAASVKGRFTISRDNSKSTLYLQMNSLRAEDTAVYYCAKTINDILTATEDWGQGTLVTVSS
T12 sequence (VL, as listed by the source, chain 2 of 2): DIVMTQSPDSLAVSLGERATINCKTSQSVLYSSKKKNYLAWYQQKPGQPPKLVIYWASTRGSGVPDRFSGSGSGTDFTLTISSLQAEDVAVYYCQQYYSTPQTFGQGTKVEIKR
Procedure: as §3, §4

Row | Binder | grade 559 | grade 710 | grade 746 | grade 787 | grade 662 | binding result [1] | grade 552 | grade 625 | grade 604 | grade 116 | binding result 647 | Kd [2] [nM] | koff [2] [s⁻¹] | kon [2] [M⁻¹ s⁻¹] | binding result [3]
1 | mAb clone 15E8 (antibody, V domains shown, Mouse hybridoma mAb, fusion 16 (immunogen PIN116)) VH: QVQLQQPGAELVMPGASVKMSCKASGYTFTDYWMHWVKQRPGQGLEWIGTIDTSDSYTNYNQKFKGKATLTVDESSSTAYMQLSSLTSEDSAVYYCVRWKKYGNYFFDYWGQGTTLTVSS VL: DIVMTQSHKFMSTSVGDRVSITCKASQDVNTAVAWYQQKPGQSPKLLIYWASTRHTGVPDRFTGSGSGTDFSLTISSVQAEDLGLYYCQQCYSTPYAFGGGTKLEIKR | 4 | 4 | 4 | 1 | 4 | no binding | 4 | 4 | 4 | 4 | no binding |  |  |  | 
2 | mAb clone 20H5 (antibody, V domains shown, Mouse hybridoma mAb, fusion 10 (immunogen fully human PIN574 Id protein)) VH: QVQLKESGPDLVAPSQSLSITCTVSGFSLTSYGVHWVRQPPGKGLEWLVVIWSDGSTTNNSPLKSRLSISKDNSKSQVFLKMNSLQTDDTAMYYCARHWGTTVVDAMDYWGQGTSVTVSS VL: DIQMTQTTSSLSASLGDRVIISCRASQDIRNYLNWYQQKPDGTVKLLIYYTSQLHSGVPSRFSGSGSGTDYSLTINNLSEQEDIATYFCQQYDTLPWTFGGGTKLEIKR |  |  |  |  |  |  |  |  |  |  |  | 1.92 | 0.000146 | 75900 | no binding
